Reference: paper PMC9482650, “Quantitative fragmentomics allow affinity mapping of interactomes” (Nature Communications, 2022)

What was measured:
Test in all cases: holdup assay
Parameters in all cases: key: below the threshold = too weak to quantify, mostly under pKd 3.1 to 4
[1] = biological target: LIMK2, P53671
[2] = biological target: CASK, O14936
[3] = biological target: DLG4_1, P78352
[4] = biological target: LAP2, Q96RT1
[5] = biological target: GRIP2_3, Q9C0E4
[6] = biological target: Inadl_4, Q8NI35
Chain of Inadl_4, Q8NI35 (Q8NI35 547-651): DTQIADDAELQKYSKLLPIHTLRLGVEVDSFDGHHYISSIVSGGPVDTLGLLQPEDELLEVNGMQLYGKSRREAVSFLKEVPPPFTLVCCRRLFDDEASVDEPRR

[7] = biological target: FRMPD2_3, Q68DX3
Chain of FRMPD2_3, Q68DX3 (Q68DX3 1073-1166): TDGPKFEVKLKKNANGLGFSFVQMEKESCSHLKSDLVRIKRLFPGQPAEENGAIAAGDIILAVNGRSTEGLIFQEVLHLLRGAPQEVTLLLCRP

[8] = biological target: T1, TJP3_3, O95049
T1 sequence (O95049 375-456, limits assumed, looked up): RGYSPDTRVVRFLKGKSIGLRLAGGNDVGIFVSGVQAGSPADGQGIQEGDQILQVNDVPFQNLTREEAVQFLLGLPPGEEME

[9] = biological target: GRIP2_6, Q9C0E4
Chain of GRIP2_6, Q9C0E4 (Q9C0E4 648-740): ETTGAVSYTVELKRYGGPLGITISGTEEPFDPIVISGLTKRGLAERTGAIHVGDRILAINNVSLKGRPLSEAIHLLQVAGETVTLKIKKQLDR

[10] = biological target: T2, NHERF3_1, Q5T2W1
T2 sequence (Q5T2W1 4-100, limits assumed, looked up): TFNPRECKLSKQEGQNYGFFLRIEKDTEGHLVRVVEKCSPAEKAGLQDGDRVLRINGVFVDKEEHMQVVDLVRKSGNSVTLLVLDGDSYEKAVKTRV

[11] = biological target: GOPC, Q9HD26
[12] = biological target: T3, LRRC7, Q96NW7
T3 sequence (Q96NW7 1440-1537, limits assumed, looked up): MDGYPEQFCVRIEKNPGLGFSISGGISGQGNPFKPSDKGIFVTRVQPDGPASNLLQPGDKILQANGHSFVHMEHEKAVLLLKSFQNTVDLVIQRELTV

[13] = biological target: T4, LNX2_3, Q8N448
T4 sequence (Q8N448 463-564, limits assumed, looked up): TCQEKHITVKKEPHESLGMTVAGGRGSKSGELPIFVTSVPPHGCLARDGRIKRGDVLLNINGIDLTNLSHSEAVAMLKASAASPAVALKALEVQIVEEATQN

[14] = biological target: NHERF2_2, Q15599
Chain of NHERF2_2, Q15599 (Q15599 142-238): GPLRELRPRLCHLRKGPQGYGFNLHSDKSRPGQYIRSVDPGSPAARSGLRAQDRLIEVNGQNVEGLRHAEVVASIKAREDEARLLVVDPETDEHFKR

[15] = biological target: NHERF4_2, Q86UT5
Chain of NHERF4_2, Q86UT5 (Q86UT5 220-308): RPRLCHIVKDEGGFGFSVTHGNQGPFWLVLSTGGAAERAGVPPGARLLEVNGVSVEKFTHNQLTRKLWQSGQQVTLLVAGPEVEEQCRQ

[16] = biological target: TJP2_1, Q9UDY2
Chain of TJP2_1, Q9UDY2 (Q9UDY2 24-128): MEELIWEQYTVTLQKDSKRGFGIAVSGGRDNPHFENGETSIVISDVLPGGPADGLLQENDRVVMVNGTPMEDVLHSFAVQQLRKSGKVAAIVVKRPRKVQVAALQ

[17] = biological target: Inadl_8, Q8NI35
Chain of Inadl_8, Q8NI35 (Q8NI35 1425-1530): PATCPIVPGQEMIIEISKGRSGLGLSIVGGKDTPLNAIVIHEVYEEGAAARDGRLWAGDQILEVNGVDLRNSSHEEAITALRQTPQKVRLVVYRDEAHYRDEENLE

[18] = biological target: T5, PDZD7_3, Q9H5P4
T5 sequence (Q9H5P4 857-944, limits assumed, looked up): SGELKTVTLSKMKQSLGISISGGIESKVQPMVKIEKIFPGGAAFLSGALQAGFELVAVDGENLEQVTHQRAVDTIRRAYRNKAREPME

[19] = biological target: T6, APBA1_2, Q02410
T6 sequence (Q02410 742-832, limits assumed, looked up): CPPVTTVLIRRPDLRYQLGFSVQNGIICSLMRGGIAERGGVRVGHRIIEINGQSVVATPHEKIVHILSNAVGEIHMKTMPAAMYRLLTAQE

[20] = biological target: T7, RHPN1, Q8TCX5
T7 sequence (Q8TCX5 508-602, limits assumed, looked up): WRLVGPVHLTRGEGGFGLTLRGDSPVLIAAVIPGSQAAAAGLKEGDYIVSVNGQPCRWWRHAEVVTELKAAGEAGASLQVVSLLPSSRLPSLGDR

[21] = biological target: T8, SHANK1, Q9Y566
T8 sequence (Q9Y566 658-767, limits assumed, looked up): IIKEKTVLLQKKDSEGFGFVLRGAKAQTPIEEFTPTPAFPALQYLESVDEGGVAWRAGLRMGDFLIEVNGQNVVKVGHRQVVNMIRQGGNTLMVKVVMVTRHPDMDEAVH

[22] = biological target: T9, APBA3_1, O96018
T9 sequence (O96018 389-490, limits assumed, looked up): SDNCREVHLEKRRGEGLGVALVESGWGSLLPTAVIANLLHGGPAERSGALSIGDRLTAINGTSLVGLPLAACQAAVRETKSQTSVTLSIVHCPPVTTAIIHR

[23] = biological target: T10, NHERF3_3, Q5T2W1
T10 sequence (Q5T2W1 238-333, limits assumed, looked up): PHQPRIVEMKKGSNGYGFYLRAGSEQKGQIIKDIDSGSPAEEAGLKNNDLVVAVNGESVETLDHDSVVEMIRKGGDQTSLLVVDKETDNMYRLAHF

[24] = biological target: LNX1_1, Q8TBB1
Chain of LNX1_1, Q8TBB1 (Q8TBB1 261-371): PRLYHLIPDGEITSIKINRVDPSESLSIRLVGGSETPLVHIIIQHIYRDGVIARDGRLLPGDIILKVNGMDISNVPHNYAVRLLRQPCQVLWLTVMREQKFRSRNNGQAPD

[25] = biological target: DLG1_3, Q12959
Chain of DLG1_3, Q12959 (Q12959 457-571): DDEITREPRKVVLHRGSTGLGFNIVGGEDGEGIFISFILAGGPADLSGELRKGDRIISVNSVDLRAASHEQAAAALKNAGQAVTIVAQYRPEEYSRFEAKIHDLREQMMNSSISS

[26] = biological target: FRMPD3, Q5JV73
Chain of FRMPD3, Q5JV73 (Q5JV73 12-100): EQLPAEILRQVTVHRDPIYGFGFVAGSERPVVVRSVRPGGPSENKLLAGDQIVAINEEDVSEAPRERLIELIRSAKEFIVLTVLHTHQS

[27] = biological target: T11, DLG3_3, Q92796
T11 sequence (Q92796 374-475, limits assumed, looked up): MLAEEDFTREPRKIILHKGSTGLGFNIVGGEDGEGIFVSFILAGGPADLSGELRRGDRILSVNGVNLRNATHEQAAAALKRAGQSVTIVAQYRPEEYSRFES

[28] = plain residues with an end cap or a label only (N-terminal biotin on a linker: ttds)
[29] = plain residues with an end cap or a label only (N-terminal biotin on a linker: ahx)

Chain of GRIP2_3, Q9C0E4 (Q9C0E4 238-339): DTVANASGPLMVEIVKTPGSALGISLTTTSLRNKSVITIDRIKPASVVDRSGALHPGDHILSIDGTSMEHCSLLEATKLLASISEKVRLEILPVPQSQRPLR
Chain of LAP2, Q96RT1 (Q96RT1 other isoform, or with tags, fused parts or gaps): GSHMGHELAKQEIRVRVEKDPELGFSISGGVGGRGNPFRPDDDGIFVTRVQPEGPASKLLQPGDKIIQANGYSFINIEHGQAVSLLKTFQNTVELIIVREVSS
Chain of DLG4_1, P78352 (P78352 62-152): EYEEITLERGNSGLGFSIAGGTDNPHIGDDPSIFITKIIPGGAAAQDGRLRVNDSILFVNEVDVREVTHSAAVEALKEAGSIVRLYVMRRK
Chain of CASK, O14936 (O14936 487-570): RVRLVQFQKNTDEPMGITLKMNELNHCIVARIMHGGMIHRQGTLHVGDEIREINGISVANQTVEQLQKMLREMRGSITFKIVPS
Chain of LIMK2, P53671 (P53671 143-248): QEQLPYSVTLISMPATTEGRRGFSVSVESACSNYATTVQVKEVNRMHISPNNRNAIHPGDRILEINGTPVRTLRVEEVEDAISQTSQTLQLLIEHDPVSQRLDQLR

## SSLQSLETSV [ATP2B4, P23634]
[1]; [28]
  pKd: below the threshold
[2]; [28]
  pKd: below the threshold
[3]; [28]
  pKd: 4.78
[4]; [28]
  pKd: 4.66
[5]; [28]
  pKd: below the threshold
[6]; [28]
  pKd: below the threshold
[7]; [28]
  pKd: below the threshold
[8]; [28]
  pKd: 3.71
[9]; [28]
  pKd: below the threshold
[10]; [28]
  pKd: 4.41
[11]; [28]
  pKd: below the threshold
[12]; [28]
  pKd: below the threshold
[13]; [28]
  pKd: below the threshold
[14]; [28]
  pKd: 3.84
[15]; [28]
  pKd: below the threshold
[16]; [28]
  pKd: 3.62
[17]; [28]
  pKd: 3.54
[18]; [28]
  pKd: 4.48
[19]; [28]
  pKd: 4.13
[20]; [28]
  pKd: 4.58
[21]; [28]
  pKd: 3.94
[22]; [28]
  pKd: below the threshold
[23]; [28]
  pKd: below the threshold
[24]; [28]
  pKd: 3.71
[25]; [28]
  pKd: 4.86
[26]; [28]
  pKd: below the threshold
[27]; [28]
  pKd: 4.73

## RLPKIKETTV [FRMPD4, Q14CM0]
[1]; [28]
  pKd: below the threshold
[2]; [28]
  pKd: below the threshold
[3]; [28]
  pKd: 5.05
[4]; [28]
  pKd: 3.87
[5]; [28]
  pKd: below the threshold
[6]; [28]
  pKd: below the threshold
[7]; [28]
  pKd: below the threshold
[8]; [28]
  pKd: below the threshold
[9]; [28]
  pKd: 3.39
[10]; [28]
  pKd: below the threshold
[11]; [28]
  pKd: 3.83
[12]; [28]
  pKd: 3.58
[13]; [28]
  pKd: below the threshold
[14]; [28]
  pKd: below the threshold
[15]; [28]
  pKd: below the threshold
[16]; [28]
  pKd: below the threshold
[17]; [28]
  pKd: 3.98
[18]; [28]
  pKd: 5.01
[19]; [28]
  pKd: below the threshold
[20]; [28]
  pKd: 4.19
[21]; [28]
  pKd: below the threshold
[22]; [28]
  pKd: below the threshold
[23]; [28]
  pKd: below the threshold
[24]; [28]
  pKd: below the threshold
[25]; [28]
  pKd: 5.3
[26]; [28]
  pKd: below the threshold
[27]; [28]
  pKd: 5.21

## DKDPHSETAL [TMIGD1, Q6UXZ0]
[1]; [28]
  pKd: below the threshold
[2]; [28]
  pKd: below the threshold
[3]; [28]
  pKd: below the threshold
[4]; [28]
  pKd: 3.66
[5]; [28]
  pKd: below the threshold
[6]; [28]
  pKd: below the threshold
[7]; [28]
  pKd: below the threshold
[8]; [28]
  pKd: 3.49
[9]; [28]
  pKd: below the threshold
[10]; [28]
  pKd: 5.42
[11]; [28]
  pKd: below the threshold
[12]; [28]
  pKd: below the threshold
[13]; [28]
  pKd: below the threshold
[14]; [28]
  pKd: 4.66
[15]; [28]
  pKd: below the threshold
[16]; [28]
  pKd: below the threshold
[17]; [28]
  pKd: below the threshold
[18]; [28]
  pKd: 4.07
[19]; [28]
  pKd: 3.65
[20]; [28]
  pKd: 3.85
[21]; [28]
  pKd: 4.42
[22]; [28]
  pKd: below the threshold
[23]; [28]
  pKd: below the threshold
[24]; [28]
  pKd: below the threshold
[25]; [28]
  pKd: below the threshold
[26]; [28]
  pKd: 3.53
[27]; [28]
  pKd: below the threshold

## RHTTSTETAV [HPV30-E6, P36809]
[1]; [28]
  pKd: 3.85
[2]; [28]
  pKd: below the threshold
[3]; [28]
  pKd: 4.92
[4]; [28]
  pKd: 4.46
[5]; [28]
  pKd: 3.61
[6]; [28]
  pKd: below the threshold
[7]; [28]
  pKd: 3.87
[8]; [28]
  pKd: below the threshold
[9]; [28]
  pKd: 3.77
[10]; [28]
  pKd: 4.87
[11]; [28]
  pKd: 4.14
[12]; [28]
  pKd: below the threshold
[13]; [28]
  pKd: below the threshold
[14]; [28]
  pKd: below the threshold
[15]; [28]
  pKd: below the threshold
[16]; [28]
  pKd: below the threshold
[17]; [28]
  pKd: 3.94
[18]; [28]
  pKd: 4.1
[19]; [28]
  pKd: 4.23
[20]; [28]
  pKd: 4.08
[21]; [28]
  pKd: 3.73
[22]; [28]
  pKd: below the threshold
[23]; [28]
  pKd: below the threshold
[24]; [28]
  pKd: below the threshold
[25]; [28]
  pKd: 4.39
[26]; [28]
  pKd: 3.76
[27]; [28]
  pKd: 4.66

## KKYVDAETSL [SLC4A7, Q9Y6M7]
[1]; [28]
  pKd: below the threshold
[2]; [28]
  pKd: below the threshold
[3]; [28]
  pKd: 3.73
[4]; [28]
  pKd: below the threshold
[5]; [28]
  pKd: below the threshold
[6]; [28]
  pKd: below the threshold
[7]; [28]
  pKd: below the threshold
[8]; [28]
  pKd: below the threshold
[9]; [28]
  pKd: below the threshold
[10]; [28]
  pKd: 5.38
[11]; [28]
  pKd: 4.09
[12]; [28]
  pKd: below the threshold
[13]; [28]
  pKd: below the threshold
[14]; [28]
  pKd: 4.62
[15]; [28]
  pKd: below the threshold
[16]; [28]
  pKd: below the threshold
[17]; [28]
  pKd: below the threshold
[18]; [28]
  pKd: 3.77
[19]; [28]
  pKd: 3.73
[20]; [28]
  pKd: 4.28
[21]; [28]
  pKd: 4.67
[22]; [28]
  pKd: below the threshold
[23]; [28]
  pKd: below the threshold
[24]; [28]
  pKd: below the threshold
[25]; [28]
  pKd: 3.75
[26]; [28]
  pKd: 3.58
[27]; [28]
  pKd: 3.79

## GYDWGPATDL [TJP3, O95049]
[1]; [29]
  pKd: below the threshold
[2]; [29]
  pKd: below the threshold
[3]; [29]
  pKd: 3.53
[4]; [29]
  pKd: 3.73
[5]; [29]
  pKd: below the threshold
[6]; [29]
  pKd: below the threshold
[7]; [29]
  pKd: below the threshold
[8]; [29]
  pKd: below the threshold
[9]; [29]
  pKd: below the threshold
[10]; [29]
  pKd: below the threshold
[11]; [29]
  pKd: 3.93
[12]; [29]
  pKd: 3.7
[13]; [29]
  pKd: below the threshold
[14]; [29]
  pKd: 4.64
[15]; [29]
  pKd: below the threshold
[16]; [29]
  pKd: below the threshold
[17]; [29]
  pKd: 3.49
[18]; [29]
  pKd: 4.14
[19]; [29]
  pKd: 4.17
[20]; [29]
  pKd: 5.36
[21]; [29]
  pKd: 4.39
[22]; [29]
  pKd: below the threshold
[23]; [29]
  pKd: below the threshold
[24]; [29]
  pKd: 4.84
[25]; [29]
  pKd: below the threshold
[26]; [29]
  pKd: below the threshold
[27]; [29]
  pKd: below the threshold
